Patent US20140106371A1

Experiments:
[1] = biological target: asialotransferrin (human) (UniProt P02787); experiment: qualitative ELLA, lectin 2 µg/mL
[2] = biological target: Gal-α1,3-Gal-BSA glycoconjugate (UniProt P02769); experiment: ELLA lectin dose response
Sequence of Gal-α1,3-Gal-BSA glycoconjugate (P02769 25-607 limits assumed): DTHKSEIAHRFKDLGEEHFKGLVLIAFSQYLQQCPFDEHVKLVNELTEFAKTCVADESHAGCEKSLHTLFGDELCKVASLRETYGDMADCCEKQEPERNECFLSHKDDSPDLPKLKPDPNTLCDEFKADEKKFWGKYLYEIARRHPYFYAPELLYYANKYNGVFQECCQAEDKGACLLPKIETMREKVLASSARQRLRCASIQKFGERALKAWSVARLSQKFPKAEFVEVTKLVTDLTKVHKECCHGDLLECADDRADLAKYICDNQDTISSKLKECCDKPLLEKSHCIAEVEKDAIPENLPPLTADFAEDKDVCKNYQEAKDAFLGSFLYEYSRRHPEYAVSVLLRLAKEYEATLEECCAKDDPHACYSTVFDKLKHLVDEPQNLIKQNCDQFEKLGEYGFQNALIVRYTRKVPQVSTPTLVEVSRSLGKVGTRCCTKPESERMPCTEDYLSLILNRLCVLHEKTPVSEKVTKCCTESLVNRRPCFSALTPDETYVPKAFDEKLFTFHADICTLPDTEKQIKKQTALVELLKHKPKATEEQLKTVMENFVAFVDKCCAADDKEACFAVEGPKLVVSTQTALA

Sequence of asialotransferrin (human) (P02787 20-698 limits assumed): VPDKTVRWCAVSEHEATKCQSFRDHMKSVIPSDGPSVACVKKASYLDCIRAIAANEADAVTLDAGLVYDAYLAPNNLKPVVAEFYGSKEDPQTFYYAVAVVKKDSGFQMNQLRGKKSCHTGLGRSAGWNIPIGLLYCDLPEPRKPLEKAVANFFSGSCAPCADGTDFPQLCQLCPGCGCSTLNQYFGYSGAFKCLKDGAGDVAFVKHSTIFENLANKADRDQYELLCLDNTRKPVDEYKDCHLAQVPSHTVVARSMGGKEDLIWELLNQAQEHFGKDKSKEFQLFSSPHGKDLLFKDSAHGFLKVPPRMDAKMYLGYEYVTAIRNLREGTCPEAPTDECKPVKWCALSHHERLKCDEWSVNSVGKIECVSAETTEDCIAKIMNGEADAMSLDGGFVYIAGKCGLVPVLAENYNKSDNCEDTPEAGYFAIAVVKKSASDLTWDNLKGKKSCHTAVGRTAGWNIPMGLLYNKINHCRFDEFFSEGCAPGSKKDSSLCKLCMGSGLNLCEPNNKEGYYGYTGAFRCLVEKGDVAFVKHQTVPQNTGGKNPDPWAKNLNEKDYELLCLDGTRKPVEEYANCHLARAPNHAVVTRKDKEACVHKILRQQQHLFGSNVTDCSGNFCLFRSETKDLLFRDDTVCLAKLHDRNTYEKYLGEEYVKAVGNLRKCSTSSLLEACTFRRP

Substance: H50N (rPA-ILNm protein) (from UniProt Q05097 1-122)
- ELLA signal relative to rPA-ILNmE6 [1]: 0.5 fold

Substance: H50N:Q53G (from UniProt Q05097 1-122)
- ELLA signal relative to rPA-ILNmE6 [1]: < 0.5 fold

Substance: rPA-ILN (recombinant wild type PA-IL with an N-terminal RGS-6HIS affinity tag) (from UniProt Q05097 1-122)
- lectin concentration at which the ELLA signal reached saturation [2]: > 1.25 µg/mL
